target: Sso7d-NanoLuc large fragment fusion

Question: NVTGYRLFKKISN [NS4] was tested. Which Kd did it give?
Answer: 8.5 nM

Question: With GVTGWRLCERILA [NS6] as the binder, how does the Kd read?
Answer: 900 nM

Question: Which Kd does the source give for NVSGWRLFKKISN [NS5-Stoffel fusion (NanoLuc small fragment NS5)] here?
Answer: 3.4 nM

— publication PMC7736784 (2020)
